Measured values: patent US20230265217A1 (published 2023)
Where a chain is given by its changes, count along the chain named. Values joined by “and” are separate entries in the source; they are usually repeats but may differ in a detail not shown here. Identical values can stand only once.

B1: Variant 6A-3 (VHH)
VHH: EVQLVESGGGLVQPGGSLRLSCAASGFTFSPSWMGWFRQAPGKEREFVATINEYGGRNYADSVKGRFTISADNSKNTAYLQMNSLKPEDTAVYYCARVDRDFDYWGQGTLVTVSS
B2: 5A-3 (VHH)
VHH: EVQLVESGGGLVQPGGSLRLSCAASGSIFSIDVMGWFRQAPGKEREFVAGISWSGDSTLYADSVKGRFTISADNSKNTAYLQMNSLKPEDTAVYYCAAFDGYTGSDWGQGTLVTVSS
B3: 7-26 (VHH)
VHH: EVQLVESGGGLVQPGGSLRLSCAASGSTFSINAMGWFRQAPGKEREFVAGITSSGGYTNYADSVKGRFTISADNSKNTAYLQMNSLKPEDTAVYYCAADGVPEYSDYASGPVWGQGTLVTVSS
B4: 7-37 (VHH)
VHH: B3 VHH with F29L, S53R, G56S, Y57V
B5: Variant 3-31 (VHH)
VHH: B3 VHH
B6: 3-31 (VHH)
VHH: B3 VHH
B7: 7-14 (VHH)
VHH: EVQLVESGGGLVQPGGSLRLSCAASGSTFSINAMGWFRQAPGKEREFVAGISRGGTTNYADSVKGRFTISADNSKNTAYLQMNSLKPEDTAVYYCAADGVPEYSDYASGPVWGQGTLVTVSS

Assays:
[1] = molecular target: SARS-CoV-2 S Trimer B.1.1.529 Omicron; assay: SPR
[2] = molecular target: SARS-CoV-2 S1 Subunit Monomer B.1.1.529 Omicron; assay: SPR
[3] = molecular target: 178-6; assay: binding competition
[4] = molecular target: Antibody 178-09_His B.1.1.7 (27080) (SARS-CoV-2, UniProt P0DTC2 14-685); assay: FACS
[5] = molecular target: Antibody 178-08_His 501.V2 (27079) (SARS-CoV-2, UniProt P0DTC2 14-685); assay: FACS
[6] = molecular target: 178-6; assay: competition
[7] = molecular target: Antibody 178-10_His CA_W152C_L452R_D614G (27081) (SARS-CoV-2, UniProt P0DTC2 14-685); assay: FACS
[8] = molecular target: SARS-CoV-2 S1 Subunit Monomer B.1.617.2 Delta; assay: SPR

| Binder | Kd [1] [nM] | Kd [2] [nM] | IC50 [3] [nM] | IC50 [4] [nM] | IC50 [5] [nM] | IC50 [6] [nM] | IC50 [7] | Kd [8] [nM] |
| --- | --- | --- | --- | --- | --- | --- | --- | --- |
| B1 | < 0.04 | 3.5 |  |  |  |  |  |  |
| B2 |  |  | 0.904 | 0.891 | 0.587 |  |  |  |
| B3 |  |  |  | 1.42 | 0.979 | 0.138 | 0.56 nM and 0.634 nM |  |
| B4 |  |  |  | 2.82 | 2.1 | 7.51 |  |  |
| B5 | 2.1 |  |  |  |  |  |  | 1.1 |
| B6 |  |  |  |  | 325 | 1.25 | 0.629 nM |  |
| B7 |  |  |  | 2.52 | 4.42 | 0.682 |  |  |
